Test results: the RNAGym collection of RNA variant scans (doi:10.1021/acssynbio.7b00057)

B1: Pistol ribozyme (parent)
chain: GGGUCGUUGUUCCAUAAUCGCGUGGAUAUGGCACGCAAGUUUCUACCGGGCACCGUAAAUGUCCGACUGGAGCCGUUCGGGCGGCUAUAAACAGACCUCAGGCCCGAAGCGUGGCGGCACCUGCCGCCGGUGGUAAAAAAGAUCGGAAGAGCACACGUCU

Variants of: B1
Assay: aptazyme ON/OFF ratio, guanine; higher = stronger switching; co-transcriptional cleavage with and without guanine

| Variant | aptazyme ON/OFF ratio |
| --- | --- |
| GGGUCGUCACGGGAUAAUCGCGUGGAUAUGGCACGCAAGUUUCUACCGGGCACCGUAAAUGUCCGACUGGAGCCGUUCGGGCGGCUAUAAACAGACCUCAGGCCCGAAGCGUGGCGGCACCUGCCGCCGGUGGUAAAAAAGAUCGGAAGAGCACACGUCU | 1.23 |
| GGGUCGUCACGGAAUAAUCGCGUGGAUAUGGCACGCAAGUUUCUACCGGGCACCGUAAAUGUCCGACUGGAGCCGUUCGGGCGGCUAUAAACAGACCUCAGGCCCGAAGCGUGGCGGCACCUGCCGCCGGUGGUAAAAAAGAUCGGAAGAGCACACGUCU | 1.42 |
| GGGUCGUCACGGUAUAAUCGCGUGGAUAUGGCACGCAAGUUUCUACCGGGCACCGUAAAUGUCCGACUGGAGCCGUUCGGGCGGCUAUAAACAGACCUCAGGCCCGAAGCGUGGCGGCACCUGCCGCCGGUGGUAAAAAAGAUCGGAAGAGCACACGUCU | 1.14 |
| GGGUCGUCACGACAUAAUCGCGUGGAUAUGGCACGCAAGUUUCUACCGGGCACCGUAAAUGUCCGACUGGAGCCGUUCGGGCGGCUAUAAACAGACCUCAGGCCCGAAGCGUGGCGGCACCUGCCGCCGGUGGUAAAAAAGAUCGGAAGAGCACACGUCU | 1.25 |
| GGGUCGUCACGUCAUAAUCGCGUGGAUAUGGCACGCAAGUUUCUACCGGGCACCGUAAAUGUCCGACUGGAGCCGUUCGGGCGGCUAUAAACAGACCUCAGGCCCGAAGCGUGGCGGCACCUGCCGCCGGUGGUAAAAAAGAUCGGAAGAGCACACGUCU | 1.29 |
| GGGUCGUCACGGCAUAAUCGCGUGGAUAUGGCACGCAAGUUUCUACCGGGCACCGUAAAUGUCCGACUGGAGCCGUUCGGGCGGCUAUAAACAGACCUCAGGCCCGAAGCGUGGCGGCACCUGCCGCCGGUGGUAAAAAAGAUCGGAAGAGCACACGUCU | 1.27 |
| GGGUCGUCACCCAAUAAUCGCGUGGAUAUGGCACGCAAGUUUCUACCGGGCACCGUAAAUGUCCGACUGGAGCCGUUCGGGCGGCUAUAAACAGACCUCAGGCCCGAAGCGUGGCGGCACCUGCCGCCGGUGGUAAAAAAGAUCGGAAGAGCACACGUCU | 1.01 |
| GGGUCGUCACCCUAUAAUCGCGUGGAUAUGGCACGCAAGUUUCUACCGGGCACCGUAAAUGUCCGACUGGAGCCGUUCGGGCGGCUAUAAACAGACCUCAGGCCCGAAGCGUGGCGGCACCUGCCGCCGGUGGUAAAAAAGAUCGGAAGAGCACACGUCU | 1.01 |
| GGGUCGUCACCCGAUAAUCGCGUGGAUAUGGCACGCAAGUUUCUACCGGGCACCGUAAAUGUCCGACUGGAGCCGUUCGGGCGGCUAUAAACAGACCUCAGGCCCGAAGCGUGGCGGCACCUGCCGCCGGUGGUAAAAAAGAUCGGAAGAGCACACGUCU | 1.02 |
| GGGUCGUCACGUGAUAAUCGCGUGGAUAUGGCACGCAAGUUUCUACCGGGCACCGUAAAUGUCCGACUGGAGCCGUUCGGGCGGCUAUAAACAGACCUCAGGCCCGAAGCGUGGCGGCACCUGCCGCCGGUGGUAAAAAAGAUCGGAAGAGCACACGUCU | 1.15 |
| GGGUCGUCACGUAAUAAUCGCGUGGAUAUGGCACGCAAGUUUCUACCGGGCACCGUAAAUGUCCGACUGGAGCCGUUCGGGCGGCUAUAAACAGACCUCAGGCCCGAAGCGUGGCGGCACCUGCCGCCGGUGGUAAAAAAGAUCGGAAGAGCACACGUCU | 1.42 |
| GGGUCGUCACGUUAUAAUCGCGUGGAUAUGGCACGCAAGUUUCUACCGGGCACCGUAAAUGUCCGACUGGAGCCGUUCGGGCGGCUAUAAACAGACCUCAGGCCCGAAGCGUGGCGGCACCUGCCGCCGGUGGUAAAAAAGAUCGGAAGAGCACACGUCU | 1.51 |
| GGGUCGUCACCGAAUAAUCGCGUGGAUAUGGCACGCAAGUUUCUACCGGGCACCGUAAAUGUCCGACUGGAGCCGUUCGGGCGGCUAUAAACAGACCUCAGGCCCGAAGCGUGGCGGCACCUGCCGCCGGUGGUAAAAAAGAUCGGAAGAGCACACGUCU | 1.24 |
| GGGUCGUCACCGUAUAAUCGCGUGGAUAUGGCACGCAAGUUUCUACCGGGCACCGUAAAUGUCCGACUGGAGCCGUUCGGGCGGCUAUAAACAGACCUCAGGCCCGAAGCGUGGCGGCACCUGCCGCCGGUGGUAAAAAAGAUCGGAAGAGCACACGUCU | 1.16 |
| GGGUCGUCACCGGAUAAUCGCGUGGAUAUGGCACGCAAGUUUCUACCGGGCACCGUAAAUGUCCGACUGGAGCCGUUCGGGCGGCUAUAAACAGACCUCAGGCCCGAAGCGUGGCGGCACCUGCCGCCGGUGGUAAAAAAGAUCGGAAGAGCACACGUCU | 1.3 |
| GGGUCGUCACCACAUAAUCGCGUGGAUAUGGCACGCAAGUUUCUACCGGGCACCGUAAAUGUCCGACUGGAGCCGUUCGGGCGGCUAUAAACAGACCUCAGGCCCGAAGCGUGGCGGCACCUGCCGCCGGUGGUAAAAAAGAUCGGAAGAGCACACGUCU | 1.17 |
| GGGUCGUCACCUCAUAAUCGCGUGGAUAUGGCACGCAAGUUUCUACCGGGCACCGUAAAUGUCCGACUGGAGCCGUUCGGGCGGCUAUAAACAGACCUCAGGCCCGAAGCGUGGCGGCACCUGCCGCCGGUGGUAAAAAAGAUCGGAAGAGCACACGUCU | 1.08 |
| GGGUCGUCACCGCAUAAUCGCGUGGAUAUGGCACGCAAGUUUCUACCGGGCACCGUAAAUGUCCGACUGGAGCCGUUCGGGCGGCUAUAAACAGACCUCAGGCCCGAAGCGUGGCGGCACCUGCCGCCGGUGGUAAAAAAGAUCGGAAGAGCACACGUCU | 1.18 |

| Variant | aptazyme ON/OFF ratio |
| --- | --- |
| GGGUCGUCACCUAAUAAUCGCGUGGAUAUGGCACGCAAGUUUCUACCGGGCACCGUAAAUGUCCGACUGGAGCCGUUCGGGCGGCUAUAAACAGACCUCAGGCCCGAAGCGUGGCGGCACCUGCCGCCGGUGGUAAAAAAGAUCGGAAGAGCACACGUCU | 1.1 |
| GGGUCGUCACCUGAUAAUCGCGUGGAUAUGGCACGCAAGUUUCUACCGGGCACCGUAAAUGUCCGACUGGAGCCGUUCGGGCGGCUAUAAACAGACCUCAGGCCCGAAGCGUGGCGGCACCUGCCGCCGGUGGUAAAAAAGAUCGGAAGAGCACACGUCU | 1.03 |
| GGGUCGUCACCUUAUAAUCGCGUGGAUAUGGCACGCAAGUUUCUACCGGGCACCGUAAAUGUCCGACUGGAGCCGUUCGGGCGGCUAUAAACAGACCUCAGGCCCGAAGCGUGGCGGCACCUGCCGCCGGUGGUAAAAAAGAUCGGAAGAGCACACGUCU | 1.09 |
| GGGUCGUCACCAUAUAAUCGCGUGGAUAUGGCACGCAAGUUUCUACCGGGCACCGUAAAUGUCCGACUGGAGCCGUUCGGGCGGCUAUAAACAGACCUCAGGCCCGAAGCGUGGCGGCACCUGCCGCCGGUGGUAAAAAAGAUCGGAAGAGCACACGUCU | 1.1 |
| GGGUCGUCACCAAAUAAUCGCGUGGAUAUGGCACGCAAGUUUCUACCGGGCACCGUAAAUGUCCGACUGGAGCCGUUCGGGCGGCUAUAAACAGACCUCAGGCCCGAAGCGUGGCGGCACCUGCCGCCGGUGGUAAAAAAGAUCGGAAGAGCACACGUCU | 1.13 |
| GGGUCGUCACCAGAUAAUCGCGUGGAUAUGGCACGCAAGUUUCUACCGGGCACCGUAAAUGUCCGACUGGAGCCGUUCGGGCGGCUAUAAACAGACCUCAGGCCCGAAGCGUGGCGGCACCUGCCGCCGGUGGUAAAAAAGAUCGGAAGAGCACACGUCU | 1.12 |
| GGGUCGUCACACUAUAAUCGCGUGGAUAUGGCACGCAAGUUUCUACCGGGCACCGUAAAUGUCCGACUGGAGCCGUUCGGGCGGCUAUAAACAGACCUCAGGCCCGAAGCGUGGCGGCACCUGCCGCCGGUGGUAAAAAAGAUCGGAAGAGCACACGUCU | 1.3 |
| GGGUCGUCACACAAUAAUCGCGUGGAUAUGGCACGCAAGUUUCUACCGGGCACCGUAAAUGUCCGACUGGAGCCGUUCGGGCGGCUAUAAACAGACCUCAGGCCCGAAGCGUGGCGGCACCUGCCGCCGGUGGUAAAAAAGAUCGGAAGAGCACACGUCU | 1.2 |
| GGGUCGUCACACGAUAAUCGCGUGGAUAUGGCACGCAAGUUUCUACCGGGCACCGUAAAUGUCCGACUGGAGCCGUUCGGGCGGCUAUAAACAGACCUCAGGCCCGAAGCGUGGCGGCACCUGCCGCCGGUGGUAAAAAAGAUCGGAAGAGCACACGUCU | 1.15 |
| GGGUCGUCACGAGAUAAUCGCGUGGAUAUGGCACGCAAGUUUCUACCGGGCACCGUAAAUGUCCGACUGGAGCCGUUCGGGCGGCUAUAAACAGACCUCAGGCCCGAAGCGUGGCGGCACCUGCCGCCGGUGGUAAAAAAGAUCGGAAGAGCACACGUCU | 1.27 |
| GGGUCGUCACGAAAUAAUCGCGUGGAUAUGGCACGCAAGUUUCUACCGGGCACCGUAAAUGUCCGACUGGAGCCGUUCGGGCGGCUAUAAACAGACCUCAGGCCCGAAGCGUGGCGGCACCUGCCGCCGGUGGUAAAAAAGAUCGGAAGAGCACACGUCU | 1.44 |
| GGGUCGUCACGAUAUAAUCGCGUGGAUAUGGCACGCAAGUUUCUACCGGGCACCGUAAAUGUCCGACUGGAGCCGUUCGGGCGGCUAUAAACAGACCUCAGGCCCGAAGCGUGGCGGCACCUGCCGCCGGUGGUAAAAAAGAUCGGAAGAGCACACGUCU | 1.4 |
| GGGUCGUCACGCCAUAAUCGCGUGGAUAUGGCACGCAAGUUUCUACCGGGCACCGUAAAUGUCCGACUGGAGCCGUUCGGGCGGCUAUAAACAGACCUCAGGCCCGAAGCGUGGCGGCACCUGCCGCCGGUGGUAAAAAAGAUCGGAAGAGCACACGUCU | 1.19 |
| GGGUCGUCACCCCAUAAUCGCGUGGAUAUGGCACGCAAGUUUCUACCGGGCACCGUAAAUGUCCGACUGGAGCCGUUCGGGCGGCUAUAAACAGACCUCAGGCCCGAAGCGUGGCGGCACCUGCCGCCGGUGGUAAAAAAGAUCGGAAGAGCACACGUCU | 1.25 |
| GGGUCGUCACGCGAUAAUCGCGUGGAUAUGGCACGCAAGUUUCUACCGGGCACCGUAAAUGUCCGACUGGAGCCGUUCGGGCGGCUAUAAACAGACCUCAGGCCCGAAGCGUGGCGGCACCUGCCGCCGGUGGUAAAAAAGAUCGGAAGAGCACACGUCU | 1.44 |
| GGGUCGUCACGCAAUAAUCGCGUGGAUAUGGCACGCAAGUUUCUACCGGGCACCGUAAAUGUCCGACUGGAGCCGUUCGGGCGGCUAUAAACAGACCUCAGGCCCGAAGCGUGGCGGCACCUGCCGCCGGUGGUAAAAAAGAUCGGAAGAGCACACGUCU | 1.2 |
| GGGUCGUCACGCUAUAAUCGCGUGGAUAUGGCACGCAAGUUUCUACCGGGCACCGUAAAUGUCCGACUGGAGCCGUUCGGGCGGCUAUAAACAGACCUCAGGCCCGAAGCGUGGCGGCACCUGCCGCCGGUGGUAAAAAAGAUCGGAAGAGCACACGUCU | 1.35 |
| GGGUCGUCACAUUAUAAUCGCGUGGAUAUGGCACGCAAGUUUCUACCGGGCACCGUAAAUGUCCGACUGGAGCCGUUCGGGCGGCUAUAAACAGACCUCAGGCCCGAAGCGUGGCGGCACCUGCCGCCGGUGGUAAAAAAGAUCGGAAGAGCACACGUCU | 1.28 |
